Tests used:
[1] = system: CD40L constructs regulated by Carbonic anhydrase DDs in T cells; test: Acetazolamide dose response of CD40L expression in transduced T cells, FACS (MFI, % CD40L positive); format: cell-based, human; conditions: for CD40L MFI / Percentage CD40L positive cells: 24 hours; for CD40L MFI: FACS
Procedure: (§1) CD40L constructs regulated by Carbonic anhydrase DDs were generated and cloned into lentiviral vectors. Purified T cells were thawed and cultured with aCD3 aCD28 Dynabeads (in the ratio of 3 beads to 1 T cell).
The constructs were transduced in T cells the next day. […] 24 hours after the addition of ligand T cells were stained for CD40L expression and analyzed using FACS.

[2] = system: CD40L constructs regulated by Carbonic anhydrase DDs in T cells; test: Time course regulation of CD40L in transduced T cells, FACS (MFI, % CD40L positive); format: cell-based, human; conditions: constitutive CD40L
Procedure: as §1
A control of empty vector (EV) and constitutive CD40L (OT-001661; amino acid SEQ ID NO. 6067 and nucleic acid SEQ ID NO. 6068) was also evaluated. Cells were fixed at 2, 4, 6, 8, 24, and 48 hours and then T cells were stained for CD40L expression and analyzed using FACS. The results are shown as median fluorescence intensity in Table 12 and as percentage CD40L positive cells in Table 13.

[3] = system: CA2 regulated CD40L in activated T cells; test: Regulation of CD40L in T cells by CA2, percent of cells expressing CD40L (surface expression); format: cell-based, human; conditions: ligand N/A
Procedure: To test regulation, activated T cells were lentivirally transduced with CA2 regulated CD40L (OT-001990) and a control of CD40L (OT-001661). Two days later, cells were treated with vehicle or […] ligand for 24h as described in Table 14 after which they were analyzed for CD40L surface expression. In the table, “Acz” is Acetazolamide.

[4] = system: monocyte derived dendritic cells (DCs), Nalm6; test: IFNg and IL-12 in supernatant of DC + Nalm6 + CAR+ T cell co-culture, MSD; format: cell-based; conditions: DC + T cells + Nalm6, no ligand stated, supernatant 24 hours
Procedure: To measure the effect of CD40L expression that is tuned by the biocircuits of the present disclosure in the context of CARs, T cells expressing any of the CA2 CD40L-CAR constructs described herein were co-cultured with monocyte derived dendritic cells (DCs).
In vitro cultures were set up by adding 1×10^4 DCs into culture with 1×10^5 Nalm6 and 1×10^5 CAR+ T cells. […] Supernatants were collected 24 hours later and analyzed for IFNg and IL-12 by MSD assay. OT-001661 (SEQ ID NO. 6067; encoded by SEQ ID NO. 6068), that expressed CD40L payloads constitutively was used as control.

[5] = system: CD40L in HEK293T cells; test: Soluble CD40L (shedding) in medium of transfected HEK293T cells, ELISA; format: cell-based, human; conditions: HEK293T cell culture medium, no ligand stated, Repeat 1
[6] = system: CA2 regulated CD40L in activated T cells; test: Regulation of CD40L in T cells by CA2, percent of cells expressing CD40L (surface expression); format: cell-based, human; conditions: All Cells, ligand N/A

Molecule: CC(=O)Nc1nnc(S(N)(=O)=O)s1 [Acetazolamide]
- CD40L MFI ([1]; CD4+ T cells with CA2 DD CD40L construct (OT-001990), Acetazolamide 0.01 μM): 112
- Percentage CD40L positive cells ([1]; CD4+ T cells with CA2 DD regulated CD40L construct, Acetazolamide 0.01 μM): 4.13%
- Percentage CD40L positive cells ([1]; CD4+ T cells with CA2 DD regulated CD40L construct, Acetazolamide 0.05 μM): 5.44%
- Percentage CD40L positive cells ([1]; CD4+ T cells with CA2 DD regulated CD40L construct, Acetazolamide 0.2 μM): 10.3%
- Percentage CD40L positive cells ([1]; CD4+ T cells with CA2 DD regulated CD40L construct, Acetazolamide 0.8 μM): 45.6%
- Percentage CD40L positive cells ([1]; CD4+ T cells with CA2 DD regulated CD40L construct, Acetazolamide 3.1 μM): 69.3%
- Percentage CD40L positive cells ([1]; CD4+ T cells with CA2 DD regulated CD40L construct, Acetazolamide 12.5 μM): 90.3%
- Percentage CD40L positive cells ([1]; CD4+ T cells with CA2 DD regulated CD40L construct, Acetazolamide 50 μM): 91.1%
- CD40L MFI ([1]; CD4+ T cells, Acetazolamide 0.2 μM): 185
- CD40L MFI ([1]; CD4+ T cells, Acetazolamide 0.8 μM): 481
- CD40L MFI ([1]; CD4+ T cells, Acetazolamide 3.1 μM): 840
- CD40L MFI ([1]; CD4+ T cells, Acetazolamide 12.5 μM): 2783
- CD40L MFI ([1]; CD4+ T cells, Acetazolamide 50 μM): 3728
- amount of Acetazolamide required to achieve stabilization of CD40L ([1]; CD4+ and CD8+ T cells): within the level of the ligand that can be achieved in humans
- CD40L MFI ([1]; CD8+ T cells with CA2 DD CD40L construct (OT-001990), Acetazolamide 0.01 μM): 105
- Percentage CD40L positive cells ([1]; CD8+ T cells with CA2 DD regulated CD40L construct, Acetazolamide 0.01 μM): 0.59%
- Percentage CD40L positive cells ([1]; CD8+ T cells with CA2 DD regulated CD40L construct, Acetazolamide 0.05 μM): 0.44%
- Percentage CD40L positive cells ([1]; CD8+ T cells with CA2 DD regulated CD40L construct, Acetazolamide 0.2 μM): 1.48%
- Percentage CD40L positive cells ([1]; CD8+ T cells with CA2 DD regulated CD40L construct, Acetazolamide 0.8 μM): 25.2%
- Percentage CD40L positive cells ([1]; CD8+ T cells with CA2 DD regulated CD40L construct, Acetazolamide 3.1 μM): 41.2%
- Percentage CD40L positive cells ([1]; CD8+ T cells with CA2 DD regulated CD40L construct, Acetazolamide 12.5 μM): 77.2%
- Percentage CD40L positive cells ([1]; CD8+ T cells with CA2 DD regulated CD40L construct, Acetazolamide 50 μM): 80.7%
- CD40L MFI ([1]; CD8+ T cells, Acetazolamide 0.05 μM): 104
- CD40L MFI ([1]; CD8+ T cells, Acetazolamide 0.2 μM): 136
- CD40L MFI ([1]; CD8+ T cells, Acetazolamide 0.8 μM): 307
- CD40L MFI ([1]; CD8+ T cells, Acetazolamide 3.1 μM): 380
- CD40L MFI ([1]; CD8+ T cells, Acetazolamide 12.5 μM): 1599
- CD40L MFI ([1]; CD8+ T cells, Acetazolamide 50 μM): 2184

B1: OT-001661: constitutive CD40L control; amino acid SEQ ID NO. 6067 and nucleic acid SEQ ID NO. 6068 (protein)
chain: MHMIETYNQTSPRSAATGLPISMKIFMYLLTVFLITQMIGSALFAVYLHRRLDKIEDERNLHEDFVFMKTIQRCNTGERSLSLLNCEEIKSQFEGFVKDIMLNKEETKKENSFEMQKGDQNPQIAAHVISEASSKTTSVLQWAEKGYYTMSNNLVTLENGKQLTVKRQGLYYIYAQVTFCSNREASSQAPFIASLCLKSPGRFERILLRAANTHSSAKPCGQQSIHLGGVFELQPGASVFVNVTDPSQVSHGTGFTSFGLLKL
notes: constitutive CD40L control; 6068
- CD40L MFI ([2]; CD4+ T cells, 2 hours): 4042
- Percentage CD40L positive cells ([2]; CD4+ T cells, 2 hours): 72.8%
- CD40L MFI ([2]; CD4+ T cells, 4 hours): 4651
- Percentage CD40L positive cells ([2]; CD4+ T cells, 4 hours): 77%
- CD40L MFI ([2]; CD4+ T cells, 6 hours): 3156
- Percentage CD40L positive cells ([2]; CD4+ T cells, 6 hours): 67.2%
- CD40L MFI ([2]; CD4+ T cells, 24 hours): 9491
- Percentage CD40L positive cells ([2]; CD4+ T cells, 24 hours): 93.3%
- CD40L MFI ([2]; CD4+ T cells, 48 hours): 5639
- Percentage CD40L positive cells ([2]; CD4+ T cells, 48 hours): 88.5%
- CD40L MFI ([2]; CD8+ T cells, 2 hours): 2212
- Percentage CD40L positive cells ([2]; CD8+ T cells, 2 hours): 56.9%
- CD40L MFI ([2]; CD8+ T cells, 4 hours): 2994
- Percentage CD40L positive cells ([2]; CD8+ T cells, 4 hours): 63.2%
- CD40L MFI ([2]; CD8+ T cells, 6 hours): 1773
- Percentage CD40L positive cells ([2]; CD8+ T cells, 6 hours): 48.5%
- CD40L MFI ([2]; CD8+ T cells, 24 hours): 3563
- Percentage CD40L positive cells ([2]; CD8+ T cells, 24 hours): 71.2%
- CD40L MFI ([2]; CD8+ T cells, 48 hours): 2313
- Percentage CD40L positive cells ([2]; CD8+ T cells, 48 hours): 71.1%
- MFI ([3]; All Cells): 20451
- CD40L positive ([3]; CD4+ T cells): 98.7%
- MFI ([3]; CD4+ T cells): 24489
- CD40L positive ([3]; CD8+ T cells): 97.8%
- MFI ([3]; CD8+ T cells): 14352
- IFNg [4]: 1579.21 pg/mL
- IL12 [4]: 58.88 pg/mL
- sCD40L [5]: 2900 pg/mL
- CD40L positive [6]: 98%

— patent publication US20220259284A1, “CA2 COMPOSITIONS AND METHODS FOR TUNABLE REGULATION” (Obsidian Therapeutics, Inc., priority 2019, published 2022)
